Where a chain is given by its changes, count along the chain named. In names and notes the source's numbering stands. Read-outs that look alike come from different tables or passages of the source. Values belong to the binder of their own block, whether it stands above or below them. [ ]: non-standard residue; d: D form. Tyr(SO2F) = N[C@@H](Cc1ccc(OS(=O)(=O)F)cc1)C(=O)O
Experiments:
[1] = target: T1, HER2 on BT-474 cells (human, UniProt P04626 23-1255); experiment: flow cytometry on BT-474 cells, pH 6.0
T1 construct: whole, on cells

[2] = target: T1, HER2 on BT-474 cells; experiment: cell-based or functional assay
[3] = target: T2, PSMA (commercial, Sino Bio cat #15877-H07H) (UniProt Q04609 44-750); experiment: SDS-PAGE time course, 37C
T2 construct: also called receptor
T2 sequence (Q04609 44-750 limits assumed): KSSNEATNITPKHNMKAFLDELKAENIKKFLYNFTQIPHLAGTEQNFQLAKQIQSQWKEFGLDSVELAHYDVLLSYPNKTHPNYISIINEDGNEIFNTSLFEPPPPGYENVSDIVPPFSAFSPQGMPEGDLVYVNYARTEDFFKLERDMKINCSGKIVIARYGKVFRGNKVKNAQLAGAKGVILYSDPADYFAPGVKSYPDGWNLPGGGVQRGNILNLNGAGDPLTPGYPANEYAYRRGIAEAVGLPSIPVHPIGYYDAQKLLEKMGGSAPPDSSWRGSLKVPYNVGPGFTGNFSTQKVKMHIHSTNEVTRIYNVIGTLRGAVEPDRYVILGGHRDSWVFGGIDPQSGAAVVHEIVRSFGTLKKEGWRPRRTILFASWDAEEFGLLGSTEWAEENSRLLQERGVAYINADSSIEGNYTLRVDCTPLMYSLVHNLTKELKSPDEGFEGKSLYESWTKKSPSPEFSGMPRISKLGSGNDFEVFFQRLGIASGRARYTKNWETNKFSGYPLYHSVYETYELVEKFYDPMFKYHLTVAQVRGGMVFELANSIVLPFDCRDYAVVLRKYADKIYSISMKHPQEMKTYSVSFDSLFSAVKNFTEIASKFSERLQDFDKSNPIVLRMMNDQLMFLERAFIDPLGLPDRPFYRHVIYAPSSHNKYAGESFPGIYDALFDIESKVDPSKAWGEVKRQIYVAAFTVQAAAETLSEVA

[4] = target: T3, PSMA on LNCaP cells (human, UniProt Q04609 1-750); experiment: western blot, LNCaP cells, 1000.0 nM, 1 h
T3 construct: whole, on cells; also called LNCaP (PSMA+)
T3 sequence (Q04609 whole entry): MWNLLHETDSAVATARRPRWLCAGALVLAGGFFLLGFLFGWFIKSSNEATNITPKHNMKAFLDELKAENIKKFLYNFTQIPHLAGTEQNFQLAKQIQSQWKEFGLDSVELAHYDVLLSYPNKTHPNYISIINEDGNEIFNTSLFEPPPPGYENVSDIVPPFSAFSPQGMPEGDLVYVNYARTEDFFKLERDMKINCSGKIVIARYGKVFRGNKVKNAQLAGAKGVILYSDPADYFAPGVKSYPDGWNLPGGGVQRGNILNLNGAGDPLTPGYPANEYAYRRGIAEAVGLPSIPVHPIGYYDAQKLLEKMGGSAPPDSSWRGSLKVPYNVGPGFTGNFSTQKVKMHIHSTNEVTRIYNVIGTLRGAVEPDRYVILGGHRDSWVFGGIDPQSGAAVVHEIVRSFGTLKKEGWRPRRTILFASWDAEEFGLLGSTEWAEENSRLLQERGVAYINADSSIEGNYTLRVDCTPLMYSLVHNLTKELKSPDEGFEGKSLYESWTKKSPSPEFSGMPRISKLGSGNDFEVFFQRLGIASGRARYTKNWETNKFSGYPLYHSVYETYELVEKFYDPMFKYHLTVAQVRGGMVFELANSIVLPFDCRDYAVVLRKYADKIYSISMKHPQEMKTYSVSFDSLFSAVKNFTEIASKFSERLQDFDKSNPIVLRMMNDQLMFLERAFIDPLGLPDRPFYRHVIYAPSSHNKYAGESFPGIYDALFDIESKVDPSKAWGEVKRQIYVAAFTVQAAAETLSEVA

[5] = target: T3, PSMA on LNCaP cells; experiment: western blot, LNCaP cells, 10.0 nM, 1 h
[6] = target: T3, PSMA on LNCaP cells; experiment: western blot, LNCaP cells, 0.1 nM, 1 h
[7] = target: T3, PSMA on LNCaP cells; experiment: western blot, LNCaP cells, 100.0 nM, 6 h
[8] = target: T3, PSMA on LNCaP cells; experiment: western blot, LNCaP cells, 100.0 nM, 1 h
[9] = target: T3, PSMA on LNCaP cells; experiment: western blot, LNCaP cells, 1.0 nM, 6 h
[10] = target: T3, PSMA on LNCaP cells; experiment: western blot, LNCaP cells, 1000.0 nM, 6 h
[11] = target: T3, PSMA on LNCaP cells; experiment: western blot, LNCaP cells, 0.1 nM, 6 h
[12] = target: T3, PSMA on LNCaP cells; experiment: western blot, LNCaP cells, 10.0 nM, 6 h
[13] = target: T3, PSMA on LNCaP cells; experiment: western blot, LNCaP cells, 1.0 nM, 1 h
[14] = target: T4, PSMA on PC3pip cells (UniProt Q04609 1-750, limits assumed); experiment: cell-based or functional assay
T4 sequence (Q04609 whole entry): as above

[15] = target: T4, PSMA on PC3pip cells; experiment: cell-based or functional assay; remark: listed apart in the source
[16] = target: T5, PSMA with a Fc tag (Acrobiosystem PSA-H5264) (UniProt Q04609 44-750); experiment: biolayer interferometry, PSMA-Fc on AHC sensor
T5 construct: Printed 'Fe tag'; captured on AHC sensors; also called PSMA with a Fe tag
T5 sequence (Q04609 44-750 limits assumed): as the sequence (Q04609 44-750 limits assumed) above

[17] = target: T3, PSMA on LNCaP cells; experiment: flow cytometry on LNCaP cells
[18] = target: T3, PSMA on LNCaP cells; experiment: flow cytometry on LNCaP cells; remark: listed apart in the source
[19] = target: T6, Fc-tagged Her2 (Acrobiosystem #HER2-H5253) (UniProt P04626 23-652); experiment: SDS-PAGE time course
T6 construct: also called Her2-Fc; FcHer2

EC50 [1]: 2.5 nM
B1: C33-54TYR (VHH)
VHH: QVQLQESGGGSVQAGGSLKLTCAASGYIFNSCGMGWYRQSPGRERELVSRISGYGDTWHKESVKGRFTISQDNVKKTLYLQMNSLKPEDTAVYFCAVCYNLETYWGQGTQVTVSS
modifications: PEG8-vc-PABC-MMAE on the C-terminal GGG
IC50 (nM) - 5 h, BT474 viability after 5 h washout [2]: 21.6 nM
IC50 (nM) - 6 days, BT474 viability, continuous exposure [2]: 0.328 nM

EC50 [1]: 160 nM
B2: C33-52TYR (VHH)
VHH: B1 VHH with S52Y, Y54D
modifications: PEG8-vc-PABC-MMAE on the C-terminal GGG, by sortase ligation
IC50 (nM) - 5 h, BT474 viability after 5 h washout [2]: > 100 nM
IC50 (nM) - 6 days, BT474 viability, continuous exposure [2]: 8.42 nM

t1/2 maximum crosslinking [3]: ~60 min
B3: C39-102FSY (VHH)
VHH: QVQLQESGGGSVQAGGSLRLSCTAPGYTDSNYYMSWFRQAPGKEREWVAGVNTGRGSTSYADSVKGRFTISQDNAKNTMFLQMNSLKPEDTAIYYCAVAAAXFADSLPKTQDEYILWGQGTQVTVSS
modifications: FSY at 102 (X of the entry)
notes: pelB leader cleaved off; also called C1-C101A/C104A/H102(FSY); C39-FSY C1

Crosslinked PSMA (Total PSMA %) [4]: 90.3%
Crosslinked PSMA (Total PSMA %) [5]: 58.7%
Crosslinked PSMA (Total PSMA %) [6]: 3.8%
Crosslinked PSMA (Total PSMA %) [7]: 87.9%
Crosslinked PSMA (Total PSMA %) [8]: 82.7%
Crosslinked PSMA (Total PSMA %) [9]: 23.7%
Crosslinked PSMA (Total PSMA %) [10]: 92%
Crosslinked PSMA (Total PSMA %) [11]: 2.8%
Crosslinked PSMA (Total PSMA %) [12]: 74.2%
Crosslinked PSMA (Total PSMA %) [13]: 13.8%
B4: C36-FSY (bispecific antibody)
chain: QVQLQESGGGSVEAGGSLRLSCARSGWPYSTYSMNWFRQAPGKEREAVAGISSTMSGIIFAESKAGQFTISQDNAKNTVYLQMNNLKPEDTAIYYCAARRXFSLSSSSDDFDYWGQGTQVTVSSGGGGSGGGGSGGGGSQVQLQESGGGSVEAGGSLRLSCARSGWPYSTYSMNWFRQAPGKEREAVAGISSTMSGIIFAESKAGQFTISQDNAKNTVYLQMNNLKPEDTAIYYCAARRXFSLSSSSDDFDYWGQGTQVTVSSAAAYPYDVPDYGSLPETGGSPSTPPTPSPSTPP
modifications: FSY at both X of the entry (101 of each C24 part)
notes: Tandem of two copies of the same VHH

Crosslinked PSMA (Total PSMA %) [4]: 70.4%
Crosslinked PSMA (Total PSMA %) [5]: 56.9%
Crosslinked PSMA (Total PSMA %) [6]: 0%
Crosslinked PSMA (Total PSMA %) [7]: 87.1%
Crosslinked PSMA (Total PSMA %) [8]: 63.3%
Crosslinked PSMA (Total PSMA %) [9]: 21.5%
Crosslinked PSMA (Total PSMA %) [10]: 89.9%
Crosslinked PSMA (Total PSMA %) [11]: 3.2%
Crosslinked PSMA (Total PSMA %) [12]: 78.7%
Crosslinked PSMA (Total PSMA %) [13]: 14.8%
B5: C34-FSY (bispecific antibody)
chain: EVQLVESGGGLVQPGGSLTLSCAASRFMISEYSMHWVRQAPGKGLEWVSTINPYGTTDYAESVKGRFTISRDNAKNTLYLQMNSLKPEDTAVYYCDGYGYRGQGTQVTVSSGGGGSGGGGSGGGGSQVQLQESGGGSVEAGGSLRLSCARSGWPYSTYSMNWFRQAPGKEREAVAGISSTMSGIIFAESKAGQFTISQDNAKNTVYLQMNNLKPEDTAIYYCAARRXFSLSSSSDDFDYWGQGTQVTVSSAAAYPYDVPDYGSLPETGGSPSTPPTPSPSTPP
modifications: FSY at the X of the entry (101 of the C24 part)
notes: Biparatopic tandem of two anti-PSMA VHH

fold potency against C28-101TYR [14]: > 400 fold
B6: C28-101FSY (VHH)
VHH: QVQLQESGGGSVEAGGSLRLSCARSGWPYSTYSMNWFRQAPGKEREAVAGISSTMSGIIFAESKAGQFTISQDNAKNTVYLQMNNLKPEDTAIYYCAARRXFSLSSSSDDFDYWGQGTQVTVSS
modifications: FSY at 101 (X of the entry); MC-PEG8-VC-PABC-MMAE on the C-terminal Cys
IC50 PC3pip (M), cell viability by CellTiter-Glo after 4 days [15]: 1.8e-10 M

Crosslinked PSMA (Total PSMA %) [4]: 41.4%
Crosslinked PSMA (Total PSMA %) [5]: 4.6%
Crosslinked PSMA (Total PSMA %) [6]: 0%
Crosslinked PSMA (Total PSMA %) [7]: 71%
Crosslinked PSMA (Total PSMA %) [8]: 28.5%
Crosslinked PSMA (Total PSMA %) [9]: 2.4%
Crosslinked PSMA (Total PSMA %) [10]: 75.8%
Crosslinked PSMA (Total PSMA %) [11]: 0%
Crosslinked PSMA (Total PSMA %) [12]: 28.4%
Crosslinked PSMA (Total PSMA %) [13]: 0%
B7: C24-101FSY (VHH)
VHH: B6 VHH
modifications: FSY at 101 (X of the entry)
notes: also called C24-FSY

fold potency against C26-54TYR [14]: 3.57 fold
B8: C26-54FSY (VHH)
VHH: EVQLVESGGGLVQPGGSLTLSCAASRFMISEYSMHWVRQAPGKGLEWVSTINPXGTTDYAESVKGRFTISRDNAKNTLYLQMNSLKPEDTAVYYCDGYGYRGQGTQVTVSS
modifications: FSY at 54 (X of the entry); MC-PEG8-VC-PABC-MMAE on the C-terminal Cys
IC50 PC3pip (M), cell viability by CellTiter-Glo after 4 days [15]: 9.39e-10 M

Kd [16]: 10.9 nM
EC50 [17]: 12.2 nM
B9: C2-54FSY (VHH)
VHH: B8 VHH
modifications: FSY at 54
notes: also called C2-A54(FSY); C2-FSY

Kd [16]: 9.1 nM
EC50 [18]: 6.75 nM
B10: C2-54TYR (VHH)
VHH: B8 VHH with X54Y
notes: C2 sdAb with tyrosine at position 54; also called C2-TYR

fold crosslinking rate against C39-102FSY [3]: 2 fold
t1/2 maximum crosslinking [3]: ~30 min
B11: C40-102FSY (bispecific antibody)
chain: QVQLQESGGGSVQAGGSLRLSCTAPGYTDSNYYMSWFRQAPGKEREWVAGVNTGRGSTSYADSVKGRFTISQDNAKNTMFLQMNSLKPEDTAIYYCAVAAAXFADSLPKTQDEYILWGQGTQVTVSSAAAYPYDVPDYGSGGGGSGGGGSQVQLQESGGGSVQAGGSLRLSCTAPGYTDSNYYMSWFRQAPGKEREWVAGVNTGRGSTSYADSVKGRFTISQDNAKNTMFLQMNSLKPEDTAIYYCAVAAAHFADSLPKTQDEYILWGQGTQVTVSSAAAYPYDVPDYGSHHHHHH
modifications: FSY at 102 of the first sdAb
notes: also called C40-FSY; C1-C101A/C104A/H102(FSY)-L1-C1-C39

crosslinking [19]: 50%
B12: C38-FSY (designed binder)
chain: MDLGKKLLEAARAGQDDEVRILMANGADVNAHDFYGITPLHLAANFGHLEIVEVLLKHGADVNAF[Tyr(SO2F)]YDNTPLHLAADAGHLEIVEVLLKYGADVNASDRDGHTPLHLAAREGHLEIVEVLLKNGADVNAQDKFGKTAFDISIDNGNEDLAEILQKLGGGGSRSDLGKKLLEAARAGQDDEVRILMANGADVNAKDEYGLTPLYLATAHGHLEIVEVLLKNGADVNAVDAIGFTPLHLAAFIGHLEIAEVLLKHGADVNAQDKFGKTAFDISIGNGNEDLAEILQKLNGS
notes: also called C15-66FSY-C16; biparatopic DARPin

From US20260263646A1 (ENLAZA THERAPEUTICS, published 2026)
